The record followed here is patent publication US7555415B2, “Methods for the design of estrogen receptor ligands” (Wyeth, priority 2005, dated 2009).

The series concerns the molecule itself. Nature of the series: X-ray crystallography, co-crystals with Compound 1 or Compound 2, two LBD molecules per asymmetric unit.

B1: human estrogen receptor alpha ligand binding domain (ERalpha-LBD), carboxymethylated (receptor)
chain: SKKNSLALSLTADQMVSALLDAEPPILYSEYDPTRPFSEASMMGLLTNLADRELVHMINWAKRVPGFVDLTLHDQVHLLECAWLEILMIGLVWRSMEHPVKLLFAPNLLLDRNQGKCVEGMVEIFDMLLATSSRFRMMNLQGEEFVCLKSIILLNSGVYTFLSSTLKSLEEKDHIHRVLDKITDTLIHLMAKAGLTLQQQHQRLAQLLLILSHIRHMSNKGMEHLYSMKCKNVVPLYDLLLEMLDAHRLHAPTS
modifications: carboxymethylated with 5 mM iodoacetic acid while bound to the estradiol-affinity column; modified residues not stated
notes: also called human ERalpha-LBD; ERalpha-LBD (301-554)
Take B1: the binding result was “binds”.
